Measured values taken from patent publication US20220162261A1 (published 2022).
Numbered stars: 1 amine (or outer) side, 2 acyl side, 3 side chain; on linkers, the order of the positions; unused ones are H or OH. Bridge positions count the residues as written; N and C are the ends. Square brackets hold non-standard residues; d marks the D form. Glu(OMe) = L-glutamic acid gamma-methyl ester, COC(=O)CC[C@H](N[*:1])C(=O)[*:2]; Phe(4-COOH) = N[C@@H](Cc1ccc(C(=O)O)cc1)C(=O)O; Phe(4-tBu) = CC(C)(C)c1ccc(C[C@H](N)C(=O)O)cc1; NMeR = CN[C@@H](CCCNC(=N)N)C(=O)O; β3hE = N[C@@H](CCC(=O)O)CC(=O)O; NMeK = CN[C@@H](CCCCN)C(=O)O; Pen = CC(C)(S)[C@H](N)C(=O)O

B1: SEQ ID NO: 130 (peptide)
peptide: Ac-[Pen][NMeR]SDTL[Pen][Phe(4-COOH)][β3hE][dK]-NH2
modifications: disulfide 1-7; not fully specified (residue 10); printed as (Ac Pen N-Me-R S D T L Pen F(4-COOH) b-H-E k NH2)2 DIG, disulfide Pen-Pen; also: homodimer, two subunits joined by DIG linker
B2: SEQ ID NO: 133 (peptide)
peptide: Ac-[Pen][NMeR]SDTL[Pen][Phe(4-tBu)]E[NMeK]-NH2
modifications: disulfide 1-7; not fully specified (residue 10); printed as (Ac Pen N-Me-R S D T L Pen F(4tBu) E N-Me-K NH2)2 DIG, disulfide Pen-Pen; also: homodimer, two subunits joined by DIG linker
B3: SEQ ID NO: 165 (peptide)
peptide: Ac-[Pen][NMeR]SDTL[Pen][Phe(4-tBu)][β3hE]-NH2
modifications: disulfide 1-7
SMILES: CC(=O)N[C@@H]1C(=O)N(C)[C@@H](CCCNC(=N)N)C(=O)N[C@@H](CO)C(=O)N[C@@H](CC(=O)O)C(=O)N[C@@H]([C@@H](C)O)C(=O)N[C@@H](CC(C)C)C(=O)N[C@H](C(=O)N[C@@H](Cc2ccc(C(C)(C)C)cc2)C(=O)N[C@@H](CCC(=O)O)CC(N)=O)C(C)(C)SSC1(C)C
B4: SEQ ID NO: 147 (peptide)
peptide: Ac-[Pen][NMeR]SDTL[Pen][Phe(4-COOH)]E[NMeK]-NH2
modifications: disulfide 1-7; not fully specified (residue 10); printed as (Ac Pen N-Me-R S D T L Pen F(4-COOH) E N-Me-K NH2)2 DIG, disulfide Pen-Pen; also: homodimer (…)2 DIG via Lys10 NZ
B5: SEQ ID NO: 168 (peptide)
peptide: Ac-[Pen][NMeR]SDTL[Pen][Phe(4-tBu)][β3hE][dK]-OH
modifications: disulfide 1-7; not fully specified (residue 10); printed as (Ac Pen N-Me-R S D T L Pen F(4tBu) b-H-E k OH)2 DIG, disulfide Pen-Pen; also: homodimer (…)2 DIG via D-Lys10 NZ
B6: SEQ ID NO: 166 (peptide)
peptide: Ac-[Pen][NMeR]SDTL[Pen][Phe(4-tBu)][β3hE][dK]-NH2
modifications: disulfide 1-7; not fully specified (residue 10); printed as (Ac Pen N-Me-R S D T L Pen F(4-tBu) b-H-E k NH2)2 IDA, disulfide Pen-Pen; also: homodimer (…)2 IDA via D-Lys10 NZ
B7: SEQ ID NO: 167 (peptide)
peptide: Ac-[Pen][NMeR]SDTL[Pen][Phe(4-tBu)][β3hE][dK]-NH2
modifications: disulfide 1-7; not fully specified (residue 10); printed as (Ac Pen N-Me-R S D T L Pen F(4-tBu) b-H-E k NH2)2 IDA PEG4 Biotin, disulfide Pen-Pen; also: homodimer (…)2 IDA PEG4 Biotin via D-Lys10 NZ
B8: SEQ ID NO: 129 (peptide)
peptide: Ac-[Pen][NMeR]SDTL[Pen][Phe(4-COOH)]E[dK]-NH2
modifications: disulfide 1-7; not fully specified (residue 10); printed as (Ac Pen N-Me-R S D T L Pen F(4-COOH) E k NH2)2 DIG, disulfide Pen-Pen; also: homodimer: two subunits joined by DIG linker
B9: SEQ ID NO: 197 (peptide)
peptide: Ac-CRSDTLCGEK-NH2
modifications: disulfide 1-7 (inferred); also: dimer linked by PEG25, attachment not given here
notes: also called peptide 197
B10: SEQ ID NO: 200 (peptide)
peptide: Ac-C[NMeR]SDTLCK-OH
modifications: disulfide 1-7 (inferred); also: dimer linked by PEG25, attachment not given here
notes: also called peptide 200
B11: SEQ ID NO: 202 (peptide)
peptide: Ac-C[NMeR]SDTL[Pen][dK]-NH2
modifications: disulfide 1-7
SMILES: CC(=O)N[C@H]1CSSC(C)(C)[C@@H](C(=O)N[C@H](CCCCN)C(N)=O)NC(=O)[C@H](CC(C)C)NC(=O)[C@H]([C@@H](C)O)NC(=O)[C@H](CC(=O)O)NC(=O)[C@H](CO)NC(=O)[C@H](CCCNC(=N)N)N(C)C1=O
B12: SEQ ID NO: 148 (peptide)
peptide: Ac-[Pen][NMeR]SDTL[Pen][Phe(4-COOH)][β3hE][NMeK]-NH2
modifications: disulfide 1-7; not fully specified (residue 10); printed as (Ac Pen N-Me-R S D T L Pen F(4-COOH) b-H-E N-Me-K NH2)2 DIG, disulfide Pen-Pen; also: homodimer (…)2 DIG via Lys10 NZ
B13: SEQ ID NO: 86 (peptide)
peptide: Ac-[Pen][NMeR]SDTL[Pen]W[Glu(OMe)][dK]-NH2
modifications: disulfide 1-7; not fully specified (residue 10); printed as (Ac Pen N-Me-R S D T L Pen W E(OMe) k NH2)2 DIG, disulfide Pen-Pen; also: homodimer: two subunits linked by DIG via D-Lys10 side chain

The binders below were run against T1, human α4β7 integrin on cells (human, UniProt P13612 34-1032; P26010 20-798) (assay: PBMC memory T cell adhesion).
T1 construct: whole, on cells; also called α4β7 cell (Hu); RPMI8866 cells

Row | IC50 [nM] | Binder
1 | ≤ 10 | B1
2 | ≤ 10 | B2
3 | > 100 | B3
4 | ≤ 10 | B4
5 | ≤ 10 | B5
6 | ≤ 10 | B6
7 | ≤ 10 | B7
8 | ≤ 10 | B8

Each binder was assayed against T2, α4β1 (R&D Systems #5668-A4) (UniProt P13612 34-970; P05556 21-728, limits assumed) (assay: competition ELISA vs VCAM-1).
T2 construct: bought; also called soluble α4β1

Row | IC50 [nM] | Binder
9 | 964 | B9
10 | 16700 | B10
11 | 444 | Ac-C[NMeR]SDTL[Pen]E[dK]-NH2 (disulfide 1-7; also: homodimer via DIG linker on D-Lys9 side chains, also called peptide 205) [SEQ ID NO: 205]
12 | 2020 | Ac-CRSDTLCGE-NH2 (disulfide 1-7 (inferred), also called peptide 194) [SEQ ID NO: 194]
13 | 1240 | Ac-C[NMeR]SDTLCGEK-OH (disulfide 1-7 (inferred); also: dimer linked by DIG, attachment not given here, also called peptide 201) [SEQ ID NO: 201]
14 | 4810 | Ac-CRSDTLCGEK-NH2 (disulfide 1-7 (inferred), also called peptide 196) [SEQ ID NO: 196]
15 | 1620 | B11
16 | 2880 | Ac-CRSDTLC-NH2 (disulfide 1-7 (inferred), also called peptide 195) [SEQ ID NO: 195]
17 | > 100000 | Ac-C[NMeR]SDTLCGEK-OH (disulfide 1-7 (inferred), also called peptide 199) [SEQ ID NO: 199]
18 | 1290 | Ac-C[NMeR]SDTLCGE-NH2 (disulfide 1-7 (inferred), also called peptide 198) [SEQ ID NO: 198]

Each binder was assayed against T3, mouse α4β7 integrin on TK1 cells (mouse, UniProt Q00651 41-1039; P26011 20-806) (assay: TK1 cell adhesion to MAdCAM-1).
T3 construct: whole, on cells; also called α4β7 cell (Mu); Cell Adhesion α4β7 Mouse
T3 sequence (Q00651 41-1039, chain 1 of 2): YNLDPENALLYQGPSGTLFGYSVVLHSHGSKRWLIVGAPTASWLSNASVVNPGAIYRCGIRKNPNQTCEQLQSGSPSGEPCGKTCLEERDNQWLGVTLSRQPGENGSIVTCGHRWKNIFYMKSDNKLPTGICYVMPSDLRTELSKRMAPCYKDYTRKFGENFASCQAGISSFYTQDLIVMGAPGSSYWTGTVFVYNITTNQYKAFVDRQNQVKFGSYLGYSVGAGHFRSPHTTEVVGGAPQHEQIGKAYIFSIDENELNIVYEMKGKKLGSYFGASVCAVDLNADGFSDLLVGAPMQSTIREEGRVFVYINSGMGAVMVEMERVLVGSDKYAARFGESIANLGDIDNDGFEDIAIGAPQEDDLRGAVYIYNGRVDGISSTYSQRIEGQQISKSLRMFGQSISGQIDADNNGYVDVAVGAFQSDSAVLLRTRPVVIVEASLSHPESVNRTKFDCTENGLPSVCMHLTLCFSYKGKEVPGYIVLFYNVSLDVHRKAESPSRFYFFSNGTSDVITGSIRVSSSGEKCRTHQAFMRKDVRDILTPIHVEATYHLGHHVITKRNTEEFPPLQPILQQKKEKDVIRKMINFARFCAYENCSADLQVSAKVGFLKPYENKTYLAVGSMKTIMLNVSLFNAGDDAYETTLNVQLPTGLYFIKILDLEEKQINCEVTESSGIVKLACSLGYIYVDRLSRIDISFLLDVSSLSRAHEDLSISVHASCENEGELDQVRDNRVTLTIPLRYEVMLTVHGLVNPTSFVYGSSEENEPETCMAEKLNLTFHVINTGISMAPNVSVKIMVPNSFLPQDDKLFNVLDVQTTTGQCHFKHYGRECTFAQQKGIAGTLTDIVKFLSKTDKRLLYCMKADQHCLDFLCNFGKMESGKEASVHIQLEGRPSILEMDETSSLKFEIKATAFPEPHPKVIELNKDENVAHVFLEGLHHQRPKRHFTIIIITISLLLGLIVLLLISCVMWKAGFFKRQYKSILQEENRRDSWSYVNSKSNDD
T3 sequence (P26011 20-806, chain 2 of 2): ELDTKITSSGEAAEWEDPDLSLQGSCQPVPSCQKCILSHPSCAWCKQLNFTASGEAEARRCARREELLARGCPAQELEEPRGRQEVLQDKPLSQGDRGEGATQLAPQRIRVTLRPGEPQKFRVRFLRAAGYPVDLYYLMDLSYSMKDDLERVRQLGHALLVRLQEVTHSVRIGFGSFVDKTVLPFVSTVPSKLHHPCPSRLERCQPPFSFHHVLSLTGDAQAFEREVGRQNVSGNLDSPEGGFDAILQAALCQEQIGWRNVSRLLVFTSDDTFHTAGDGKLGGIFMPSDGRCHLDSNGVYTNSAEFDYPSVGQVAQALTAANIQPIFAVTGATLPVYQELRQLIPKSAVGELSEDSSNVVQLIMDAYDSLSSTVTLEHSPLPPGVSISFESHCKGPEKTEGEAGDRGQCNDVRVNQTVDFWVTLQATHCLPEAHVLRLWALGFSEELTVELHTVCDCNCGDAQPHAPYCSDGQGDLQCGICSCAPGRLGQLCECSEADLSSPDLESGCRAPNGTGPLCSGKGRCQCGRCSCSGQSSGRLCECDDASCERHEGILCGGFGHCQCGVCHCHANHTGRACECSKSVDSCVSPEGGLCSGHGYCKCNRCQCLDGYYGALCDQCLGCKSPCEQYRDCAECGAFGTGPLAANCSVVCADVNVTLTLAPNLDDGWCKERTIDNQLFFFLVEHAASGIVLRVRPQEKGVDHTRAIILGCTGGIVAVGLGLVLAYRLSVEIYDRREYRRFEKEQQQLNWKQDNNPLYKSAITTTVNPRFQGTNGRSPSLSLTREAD

Row | IC50 [nM] | Binder
19 | ≤ 10 | B4
20 | ≤ 10 | B12
21 | ≤ 10 | B13

These binders were tested against T4, rh integrin α4β7 (R&D Systems #5397-A30) (human, UniProt P13612 34-970; P26010 20-723) (assay: competition ELISA vs MAdCAM-1).
T4 construct: bought; coated on a nickel coated plate; also called immobilized α4β7; immobilized α4β7 integrin protein

Row | IC50 [nM] | Binder
22 | ≤ 10 | B1
23 | ≤ 10 | B2
24 | ≤ 10 | B4
25 | ≤ 10 | B12
26 | ≤ 10 | B8

Target: T4, rh integrin α4β7 (R&D Systems #5397-A30)
Test: competition ELISA vs MAdCAM-1
Remark: another data set of the same source

Row | IC50 [nM] | Binder
27 | 36 | B9
28 | 3 | B10
29 | 2.4 | Ac-C[NMeR]SDTL[Pen]E[dK]-NH2 (disulfide 1-7; also: homodimer via DIG linker on D-Lys9 side chains, also called peptide 205) [SEQ ID NO: 205]
30 | 97 | Ac-CRSDTLCGE-NH2 (disulfide 1-7 (inferred), also called peptide 194) [SEQ ID NO: 194]
31 | 1 | Ac-C[NMeR]SDTLCGEK-OH (disulfide 1-7 (inferred); also: dimer linked by DIG, attachment not given here, also called peptide 201) [SEQ ID NO: 201]
32 | 30.5 | XRSDTLXWK (Ac Pen N-Me-R S D T L Pen W k NH2; disulfide Pen-Pen, also called peptide 208) [SEQ ID NO: 208]
33 | 87 | Ac-CRSDTLCGEK-NH2 (disulfide 1-7 (inferred), also called peptide 196) [SEQ ID NO: 196]
34 | 87 | B11
35 | 26 | Ac-[Pen]RSDTLC[dK]-NH2 (disulfide 1-7; also: homodimer via DIG linker on D-Lys8 side chains, also called peptide 207) [SEQ ID NO: 207]
36 | 97 | Ac-CRSDTLC-NH2 (disulfide 1-7 (inferred), also called peptide 195) [SEQ ID NO: 195]
37 | 58 | Ac-C[NMeR]SDTLCGEK-OH (disulfide 1-7 (inferred), also called peptide 199) [SEQ ID NO: 199]
38 | 20 | Ac-C[NMeR]SDTLCGE-NH2 (disulfide 1-7 (inferred), also called peptide 198) [SEQ ID NO: 198]

The binders below were run against T5, human α4β1 integrin on cells (human, UniProt P13612 34-1032; P05556 21-798) (assay: Jurkat cell adhesion to VCAM-1).
T5 construct: whole, on cells; also called α4β1 cell; Jurkat cells

Row | IC50 [nM] | Binder
39 | > 100000 | B9
40 | > 100000 | B10
41 | > 100000 | Ac-CRSDTLCGEK-NH2 (disulfide 1-7 (inferred), also called peptide 196) [SEQ ID NO: 196]
42 | > 100000 | B11
43 | > 100000 | Ac-C[NMeR]SDTLCGE-NH2 (disulfide 1-7 (inferred), also called peptide 198) [SEQ ID NO: 198]

The binders below were run against T1, human α4β7 integrin on cells (assay: RPMI8866 cell adhesion to MAdCAM-1).

Row | IC50 [nM] | Binder
44 | ≤ 10 | B1
45 | > 10 | B3
46 | ≤ 10 | B4
47 | ≤ 10 | B12
48 | ≤ 10 | B5
49 | ≤ 10 | B6
50 | ≤ 10 | B7
51 | ≤ 10 | B8
52 | ≤ 10 | B13

Target: T1, human α4β7 integrin on cells
Test: RPMI8866 cell adhesion to MAdCAM-1
Remark: another data set of the same source

Row | IC50 [nM] | Binder
53 | 301 | B9
54 | 96 | B10
55 | 26 | Ac-C[NMeR]SDTL[Pen]E[dK]-NH2 (disulfide 1-7; also: homodimer via DIG linker on D-Lys9 side chains, also called peptide 205) [SEQ ID NO: 205]
56 | 590 | Ac-CRSDTLCGE-NH2 (disulfide 1-7 (inferred), also called peptide 194) [SEQ ID NO: 194]
57 | 28 | Ac-C[NMeR]SDTLCGEK-OH (disulfide 1-7 (inferred); also: dimer linked by DIG, attachment not given here, also called peptide 201) [SEQ ID NO: 201]
58 | 412 | XRSDTLXWK (Ac Pen N-Me-R S D T L Pen W k NH2; disulfide Pen-Pen, also called peptide 208) [SEQ ID NO: 208]
59 | 6660 | Ac-CRSDTLCGEK-NH2 (disulfide 1-7 (inferred), also called peptide 196) [SEQ ID NO: 196]
60 | 11000 | B11
61 | 49 | Ac-[Pen]RSDTLC[dK]-NH2 (disulfide 1-7; also: homodimer via DIG linker on D-Lys8 side chains, also called peptide 207) [SEQ ID NO: 207]
62 | 1220 | Ac-CRSDTLC-NH2 (disulfide 1-7 (inferred), also called peptide 195) [SEQ ID NO: 195]
63 | 4690 | Ac-C[NMeR]SDTLCGEK-OH (disulfide 1-7 (inferred), also called peptide 199) [SEQ ID NO: 199]
64 | 1120 | Ac-C[NMeR]SDTLCGE-NH2 (disulfide 1-7 (inferred), also called peptide 198) [SEQ ID NO: 198]
